According to patent US20210309732A1 (ELIXIRON IMMUNOTHERAPEUTICS HONG KONG, published 2021):

Target: T1, recombinant human GM-CSF (human, UniProt P04141 18-144)
T1 construct: also called rhGM-CSF; CSF2
Test: ELISA on coated rhGM-CSF, UBA relative to 1D2
Text: Some of the residues in the CDRs are essential for epitope binding affinity and/or specificity. A number of computational methods were developed to detect these functional residues, generally known as ‘specificity-determining resides’ (SDRs). […] Based on the analysis, 7 amino acid residues in VH and 3 amino acid residues in VL were selected as the SDRs. The residues are labeled X₁ to X₁₀ for the ease of reference. The SDRs on VH are: Heavy chain D31 (HD31) (X₁), HK32 (X₂), HK54(X₃), HR100 (X₄), HY102 (X₅), HY103 (X₆) and HQ105 (X₇). The SDRs on VL are Light chain V32 (LV32) (X₈), LP94 (X₉) and LV95 (X₁₀). The SDRs were subsequently mutated by site-directed mutagenesis to other amino acids to generate mutant VH or VL clones. HEK293 cells were co-transfected with a vector encoding a mutant VH paired with a vector encoding a wild type VL or a vector encoding a wild type VH paired with a vector encoding a mutant VL. The antibody clones were harvested from the culture medium. The binding affinity of each antibody clone to human GM-CSF was tested by ELISA. The ELISA was done according to the following procedures. ELISA plate was coated with 50 μl of rhGM-CSF at 1 μg/mL. The plate was washed with 200 μl PBST for three times, followed by blocking with 1% BSA for 1 hour at room temperature. The antibody clones to be tested were diluted at 1:12000. 100 μl of the diluted antibodies were added to the cell at 100 μl/well. The plate was incubated at room temperature for 1 hour. The plate was then washed and incubated with 1:5000 diluted goat-anti-human secondary antibody conjugated with HRP at room temperature for one hour. The ELISA assay was developed with 100 μl developing buffer containing H₂O₂-Amplx Red per well in the dark for 5 min and the fluorescence intensity was read at Ex.530/Em.590 nm, with cutoff at 570 nm. The Unit Binding Activity (UBA) of each sample was calculated as the fluorescence signal/antibody clone dilution factor.

T1 sequence (P04141 18-144 limits assumed): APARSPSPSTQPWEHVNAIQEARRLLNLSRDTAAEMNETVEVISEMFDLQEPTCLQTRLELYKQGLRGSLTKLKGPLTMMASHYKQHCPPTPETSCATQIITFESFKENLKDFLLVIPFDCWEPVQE

Row | binding affinity % of 1D2 | Binder
1 | 66% | 1D2 SDR mutant HD31A (antibody, IgG1, V domains shown, also called X1 A) VH: QVQLVQSGAEVKKPGASVKVSCEASGYTFTAKYLHWVRQAPGQGLEWMAWINPKSGGTFYAQNFKGRVTVTRDTSINTAYLELTSLRLDDTSTYYCARGRDYYDQGAADLWGQGTMVTVSS VL: DIQLTQSPSSLSASVGDRVTITCRASQGINSVLAWYQQKPGKAPKLLLYAASKLESGVPSRFSGSGSGTDYTLTISSLQPEDFGTYYCQQYYSPVRTFGQGTKVEIKR
2 | 90% | 1D2 SDR mutant HK32D (antibody, IgG1, V domains shown, also called X2 D) VH: QVQLVQSGAEVKKPGASVKVSCEASGYTFTDDYLHWVRQAPGQGLEWMAWINPKSGGTFYAQNFKGRVTVTRDTSINTAYLELTSLRLDDTSTYYCARGRDYYDQGAADLWGQGTMVTVSS VL: DIQLTQSPSSLSASVGDRVTITCRASQGINSVLAWYQQKPGKAPKLLLYAASKLESGVPSRFSGSGSGTDYTLTISSLQPEDFGTYYCQQYYSPVRTFGQGTKVEIKR
3 | 86% | 1D2 SDR mutant HK32C (antibody, IgG1, V domains shown, also called X2 C) VH: QVQLVQSGAEVKKPGASVKVSCEASGYTFTDCYLHWVRQAPGQGLEWMAWINPKSGGTFYAQNFKGRVTVTRDTSINTAYLELTSLRLDDTSTYYCARGRDYYDQGAADLWGQGTMVTVSS VL: DIQLTQSPSSLSASVGDRVTITCRASQGINSVLAWYQQKPGKAPKLLLYAASKLESGVPSRFSGSGSGTDYTLTISSLQPEDFGTYYCQQYYSPVRTFGQGTKVEIKR
4 | 63% | 1D2 SDR mutant HK32F (antibody, IgG1, V domains shown, also called X2 F) VH: QVQLVQSGAEVKKPGASVKVSCEASGYTFTDFYLHWVRQAPGQGLEWMAWINPKSGGTFYAQNFKGRVTVTRDTSINTAYLELTSLRLDDTSTYYCARGRDYYDQGAADLWGQGTMVTVSS VL: DIQLTQSPSSLSASVGDRVTITCRASQGINSVLAWYQQKPGKAPKLLLYAASKLESGVPSRFSGSGSGTDYTLTISSLQPEDFGTYYCQQYYSPVRTFGQGTKVEIKR
5 | 71% | 1D2 SDR mutant HD31V (antibody, IgG1, V domains shown, also called X1 V) VH: QVQLVQSGAEVKKPGASVKVSCEASGYTFTVKYLHWVRQAPGQGLEWMAWINPKSGGTFYAQNFKGRVTVTRDTSINTAYLELTSLRLDDTSTYYCARGRDYYDQGAADLWGQGTMVTVSS VL: DIQLTQSPSSLSASVGDRVTITCRASQGINSVLAWYQQKPGKAPKLLLYAASKLESGVPSRFSGSGSGTDYTLTISSLQPEDFGTYYCQQYYSPVRTFGQGTKVEIKR
6 | 94% | 1D2 SDR mutant HK32E (antibody, IgG1, V domains shown, also called X2 E) VH: QVQLVQSGAEVKKPGASVKVSCEASGYTFTDEYLHWVRQAPGQGLEWMAWINPKSGGTFYAQNFKGRVTVTRDTSINTAYLELTSLRLDDTSTYYCARGRDYYDQGAADLWGQGTMVTVSS VL: DIQLTQSPSSLSASVGDRVTITCRASQGINSVLAWYQQKPGKAPKLLLYAASKLESGVPSRFSGSGSGTDYTLTISSLQPEDFGTYYCQQYYSPVRTFGQGTKVEIKR
7 | 72% | 1D2 SDR mutant HD31W (antibody, IgG1, V domains shown, also called X1 W) VH: QVQLVQSGAEVKKPGASVKVSCEASGYTFTWKYLHWVRQAPGQGLEWMAWINPKSGGTFYAQNFKGRVTVTRDTSINTAYLELTSLRLDDTSTYYCARGRDYYDQGAADLWGQGTMVTVSS VL: DIQLTQSPSSLSASVGDRVTITCRASQGINSVLAWYQQKPGKAPKLLLYAASKLESGVPSRFSGSGSGTDYTLTISSLQPEDFGTYYCQQYYSPVRTFGQGTKVEIKR
8 | 47% | 1D2 SDR mutant HD31S (antibody, IgG1, V domains shown, also called X1 S) VH: QVQLVQSGAEVKKPGASVKVSCEASGYTFTSKYLHWVRQAPGQGLEWMAWINPKSGGTFYAQNFKGRVTVTRDTSINTAYLELTSLRLDDTSTYYCARGRDYYDQGAADLWGQGTMVTVSS VL: DIQLTQSPSSLSASVGDRVTITCRASQGINSVLAWYQQKPGKAPKLLLYAASKLESGVPSRFSGSGSGTDYTLTISSLQPEDFGTYYCQQYYSPVRTFGQGTKVEIKR
9 | 57% | 1D2 SDR mutant HD31L (antibody, IgG1, V domains shown, also called X1 L) VH: QVQLVQSGAEVKKPGASVKVSCEASGYTFTLKYLHWVRQAPGQGLEWMAWINPKSGGTFYAQNFKGRVTVTRDTSINTAYLELTSLRLDDTSTYYCARGRDYYDQGAADLWGQGTMVTVSS VL: DIQLTQSPSSLSASVGDRVTITCRASQGINSVLAWYQQKPGKAPKLLLYAASKLESGVPSRFSGSGSGTDYTLTISSLQPEDFGTYYCQQYYSPVRTFGQGTKVEIKR
10 | 58% | 1D2 SDR mutant HD31G (antibody, IgG1, V domains shown, also called X1 G) VH: QVQLVQSGAEVKKPGASVKVSCEASGYTFTGKYLHWVRQAPGQGLEWMAWINPKSGGTFYAQNFKGRVTVTRDTSINTAYLELTSLRLDDTSTYYCARGRDYYDQGAADLWGQGTMVTVSS VL: DIQLTQSPSSLSASVGDRVTITCRASQGINSVLAWYQQKPGKAPKLLLYAASKLESGVPSRFSGSGSGTDYTLTISSLQPEDFGTYYCQQYYSPVRTFGQGTKVEIKR
11 | 73% | 1D2 SDR mutant HD31R (antibody, IgG1, V domains shown, also called X1 R) VH: QVQLVQSGAEVKKPGASVKVSCEASGYTFTRKYLHWVRQAPGQGLEWMAWINPKSGGTFYAQNFKGRVTVTRDTSINTAYLELTSLRLDDTSTYYCARGRDYYDQGAADLWGQGTMVTVSS VL: DIQLTQSPSSLSASVGDRVTITCRASQGINSVLAWYQQKPGKAPKLLLYAASKLESGVPSRFSGSGSGTDYTLTISSLQPEDFGTYYCQQYYSPVRTFGQGTKVEIKR
12 | 63% | 1D2 SDR mutant HD31E (antibody, IgG1, V domains shown, also called X1 E) VH: QVQLVQSGAEVKKPGASVKVSCEASGYTFTEKYLHWVRQAPGQGLEWMAWINPKSGGTFYAQNFKGRVTVTRDTSINTAYLELTSLRLDDTSTYYCARGRDYYDQGAADLWGQGTMVTVSS VL: DIQLTQSPSSLSASVGDRVTITCRASQGINSVLAWYQQKPGKAPKLLLYAASKLESGVPSRFSGSGSGTDYTLTISSLQPEDFGTYYCQQYYSPVRTFGQGTKVEIKR
13 | 79% | 1D2 SDR mutant HD31C (antibody, IgG1, V domains shown, also called X1 C) VH: QVQLVQSGAEVKKPGASVKVSCEASGYTFTCKYLHWVRQAPGQGLEWMAWINPKSGGTFYAQNFKGRVTVTRDTSINTAYLELTSLRLDDTSTYYCARGRDYYDQGAADLWGQGTMVTVSS VL: DIQLTQSPSSLSASVGDRVTITCRASQGINSVLAWYQQKPGKAPKLLLYAASKLESGVPSRFSGSGSGTDYTLTISSLQPEDFGTYYCQQYYSPVRTFGQGTKVEIKR
14 | 44% | 1D2 SDR mutant HD31T (antibody, IgG1, V domains shown, also called X1 T) VH: QVQLVQSGAEVKKPGASVKVSCEASGYTFTTKYLHWVRQAPGQGLEWMAWINPKSGGTFYAQNFKGRVTVTRDTSINTAYLELTSLRLDDTSTYYCARGRDYYDQGAADLWGQGTMVTVSS VL: DIQLTQSPSSLSASVGDRVTITCRASQGINSVLAWYQQKPGKAPKLLLYAASKLESGVPSRFSGSGSGTDYTLTISSLQPEDFGTYYCQQYYSPVRTFGQGTKVEIKR
15 | 61% | 1D2 SDR mutant HK32A (antibody, IgG1, V domains shown, also called X2 A) VH: QVQLVQSGAEVKKPGASVKVSCEASGYTFTDAYLHWVRQAPGQGLEWMAWINPKSGGTFYAQNFKGRVTVTRDTSINTAYLELTSLRLDDTSTYYCARGRDYYDQGAADLWGQGTMVTVSS VL: DIQLTQSPSSLSASVGDRVTITCRASQGINSVLAWYQQKPGKAPKLLLYAASKLESGVPSRFSGSGSGTDYTLTISSLQPEDFGTYYCQQYYSPVRTFGQGTKVEIKR
16 | 69% | 1D2 SDR mutant HD31P (antibody, IgG1, V domains shown, also called X1 P) VH: QVQLVQSGAEVKKPGASVKVSCEASGYTFTPKYLHWVRQAPGQGLEWMAWINPKSGGTFYAQNFKGRVTVTRDTSINTAYLELTSLRLDDTSTYYCARGRDYYDQGAADLWGQGTMVTVSS VL: DIQLTQSPSSLSASVGDRVTITCRASQGINSVLAWYQQKPGKAPKLLLYAASKLESGVPSRFSGSGSGTDYTLTISSLQPEDFGTYYCQQYYSPVRTFGQGTKVEIKR
17 | 74% | 1D2 SDR mutant HD31N (antibody, IgG1, V domains shown, also called X1 N) VH: QVQLVQSGAEVKKPGASVKVSCEASGYTFTNKYLHWVRQAPGQGLEWMAWINPKSGGTFYAQNFKGRVTVTRDTSINTAYLELTSLRLDDTSTYYCARGRDYYDQGAADLWGQGTMVTVSS VL: DIQLTQSPSSLSASVGDRVTITCRASQGINSVLAWYQQKPGKAPKLLLYAASKLESGVPSRFSGSGSGTDYTLTISSLQPEDFGTYYCQQYYSPVRTFGQGTKVEIKR
18 | 74% | 1D2 SDR mutant HD31Q (antibody, IgG1, V domains shown, also called X1 Q) VH: QVQLVQSGAEVKKPGASVKVSCEASGYTFTQKYLHWVRQAPGQGLEWMAWINPKSGGTFYAQNFKGRVTVTRDTSINTAYLELTSLRLDDTSTYYCARGRDYYDQGAADLWGQGTMVTVSS VL: DIQLTQSPSSLSASVGDRVTITCRASQGINSVLAWYQQKPGKAPKLLLYAASKLESGVPSRFSGSGSGTDYTLTISSLQPEDFGTYYCQQYYSPVRTFGQGTKVEIKR
